Laboratory results taken from the supplement of paper PMC10567573.

B1: ACSBG2 (parent)
chain: FAQADALKGTLVSTLKEVKPTVFI
B2: TRIM15 (parent)
chain: LSQMGAQSSGKILLCPLCQEEEQA

Variants of: B1
Assay: protein stability index of a GFP-peptide fusion (GPS, HEK-293T) (PSI 1-6); higher = more stable
Details: c terminus: a fixed tail appended
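Also: lentivirally expressed fusions sorted by FACS into six bins by GFP to DsRed ratio, PSI derived from sequencing read proportions per bin multiplied by bin number.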

Protein stability index: each site, then its substitutions
V12: K 3.87 | P 1.85 | R 2.08 | D 1.81 | T 1.63 | S 1.34 | E 1.89 | A 1.64 | C 1.76 | L 1.25 | G 1.95
K16: C 2.34 | S 2.25 | T 3.25 | H 2.75 | W 2.4 | P 2.41 | F 2.41
D5: Y 1.44 | N 1.9 | K 1.69 | M 2.98 | Q 2.4 | H 1.3 | P 1.9 | A 3.35 | S 2.67 | T 2.12
V18: C 3.06 | W 3.71 | T 1.26 | L 1.04 | M 1.44 | N 2.43 | I 2.48 | E 5.23 | R 1.89 | A 2.63 | D 1.68
F23: Y 2.32 | H 1.75 | Q 2.16 | N 1.69 | D 2.62 | A 1.96 | W 2.2 | R 2.64 | T 1.73 | I 1.65
I24: C 2.92 | P 2.27 | M 1.16 | W 1.26 | V 1.83 | A 1.98 | G 2.08
A2: E 2.05 | L 2.46 | G 2.13 | H 2.08 | R 1.42 | T 1.56 | D 2.11 | C 1.85 | N 1.45 | F 2.79 | P 1.48 | K 2.49 | S 1.76
A6: V 2.58 | N 1.58 | G 1.57 | T 2.21 | W 3.31 | I 1.34 | C 1.28 | D 1.71 | K 2.23
S13: P 1.41 | V 4.44 | N 2.01 | Q 1.39 | E 1.27 | T 2.04 | G 1.04 | F 2.53 | D 1.85
T14: Y 3.04 | I 2.22 | K 2.03 | E 1.26 | N 2.26 | P 1.23 | F 2.64
L11: P 1.84 | D 2.02 | F 1.7 | T 2.78 | C 1.72 | G 1.51 | I 2.55 | E 2.88 | K 1.67 | A 1.88 | N 2.1 | V 2.08 | S 1.61
E17: V 2.23 | T 3.12 | F 2.07 | L 2.51 | S 1.81 | G 1.95 | R 1.99 | C 2.06
L7: P 2.05 | H 2.16 | E 2.5 | S 1.67 | R 2.07 | V 1.91 | G 1.3 | T 2.02 | C 1.52 | F 3.08 | I 1.86 | D 2.12
K8: Q 2.39 | P 1.4 | F 2.34 | M 1.22 | H 2.74 | N 1.59
P20: G 2.47 | V 1.91 | S 2.9 | W 2.33 | K 1.25 | Y 2.68 | R 2.28 | D 1.51 | Q 2.13
L15: Q 2.02 | A 2.51 | F 1.77 | N 1.77 | W 1.66
Q3: E 1.74 | C 1.4 | K 2.06 | M 3.51 | W 2.13 | R 2.92 | V 3.21 | D 1.36
V22: S 2.05 | N 1.98 | R 2.94 | C 2.18 | P 2.02 | F 1.67 | Q 2.28 | D 2.99 | E 1.94 | G 2.25 | H 1.92
K19: E 1.48 | Q 2.08 | R 1.02 | Y 2.36 | T 2.53 | P 2.84 | N 1.48
A4: K 2.03 | C 2.52 | L 1.69 | N 2.14 | P 3.08 | S 1.69 | R 2.19 | H 2.31 | Q 1.44
G9: K 2.32 | M 2.03 | R 2.76 | D 1.59 | Q 2.52 | F 2.24 | W 3.93
T10: C 1.81 | W 2.36 | V 2.24 | P 1.14 | Q 1.79
T21: W 3.06 | H 1.61 | V 4.03 | Y 1.64 | S 2.35 | R 2 | N 1.92
F1: N 2.59 | C 1.3 | G 2.46 | Q 3.73 | E 3.21 | S 2 | A 2.26 | H 1.98 | V 1.54 | D 2.43

Variants of: B2
Assay: as above
Details: c terminus: a fixed tail appended

Protein stability index, by site and new letter:
Q3: F 2.9 | E 3.68 | N 3.55 | C 3.18 | T 3.58 | H 3.95 | W 2.23 | V 2.81 | R 3.23 | Y 3.24 | M 2.96 | P 4.9 | I 3.11 | D 3.97 | K 4.1
Q7: R 3.5 | D 3.88 | C 3.71 | I 2.74 | H 4.53 | P 3.15 | V 2.76 | F 2.88 | A 4.11 | S 3.77 | M 2.99 | N 4.07 | T 3.99 | G 3.58 | L 2.8 | E 3.52 | K 3.47 | Y 3.24 | W 3.84
G5: K 3.87 | F 3.22 | Y 2.9 | M 2.95 | R 3.32 | A 3.49 | D 3.49 | I 2.98 | H 3.14 | T 3.7 | P 2.76 | L 3.27 | Q 3.92 | V 3.13 | C 3.92 | S 3.05 | N 3.39
L1: K 3.7 | D 4.53 | F 2.73 | H 3.94 | A 3.1 | G 3.96 | I 3.38 | V 3.97 | S 3.55 | Y 2.65 | E 3.99 | R 3.77 | N 3.75 | P 3.44 | W 4.43 | Q 4.4 | M 3.52
S2: D 5.08 | M 3.58 | E 4 | Q 4.06 | H 3.43 | R 3.7 | T 3.71 | K 3.14 | A 2.6 | Y 3.63 | I 1.9 | P 4.26 | F 2.96
A6: C 3.37 | I 3.93 | D 3.75 | H 4.33 | S 4.02 | T 3.27 | P 3.8 | V 3.81 | M 3.3 | K 4.68 | Y 3.29 | N 3.12 | E 3.56 | W 3.94 | F 2.6 | G 3.47 | R 3.17
M4: P 4.94 | N 3.6 | A 4.66 | S 4.08 | L 4.22 | C 4.13 | V 2.81 | G 3.2 | E 3.94 | F 3.26 | I 3.82 | R 3.92 | Y 3.76
S8: C 2.89 | P 3.73 | F 2.76 | Q 3.27 | K 3.4 | I 3.14 | G 3.93 | N 3.82 | D 3.98 | A 4.01 | E 3.82 | H 3.82
